The text below walks through data of paper PMC5674072 (2017).

To fix the notation:
B1: 3x Flag Matrin 3 wild-type (human) [human] / Aly (AlyRef) of NSC-34 cells [mouse (endogenous in NSC-34)] (parent complex)
chain 1: MSKSFQQSSLSRDSQGHGRDLSAAGIGLLAAATQSLSMPASLGRMNQGTARLASLMNLGMSSSLNQQGAHSALSSASTSSHNLQSIFNIGSRGPLPLSSQHRGDADQASNILASFGLSARDLDELSRYPEDKITPENLPQILLQLKRRRTEEGPTLSYGRDGRSATREPPYRVPRDDWEEKRHFRRDSFDDRGPSLNPVLDYDHGSRSQESGYYDRMDYEDDRLRDGERCRDDSFFGETSHNYHKFDSEYERMGRGPGPLQERSLFEKKRGAPPSSNIEDFHGLLPKGYPHLCSICDLPVHSNKEWSQHINGASHSRRCQLLLEIYPEWNPDNDTGHTMGDPFMLQQSTNPAPGILGPPPPSFHLGGPAVGPRGNLGAGNGNLQGPRHMQKGRVETSRVVHIMDFQRGKNLRYQLLQLVEPFGVISNHLILNKINEAFIEMATTEDAQAAVDYYTTTPALVFGKPVRVHLSQKYKRIKKPEGKPDQKFDQKQELGRVIHLSNLPHSGYSDSAVLKLAEPYGKIKNYILMRMKSQAFIEMETREDAMAMVDHCLKKALWFQGRCVKVDLSEKYKKLVLRIPNRGIDLLKKDKSRKRSYSPDGKESPSDKKSKTDGSQKTESSTEGKEQEEKSGEDGEKDTKDDQTEQEPNMLLESEDELLVDEEEAAALLESGSSVGDETDLANLGDVASDGKKEPSDKAVKKDGSASAAAKKKLKKVDKIEELDQENEAALENGIKNEENTEPGAESSENADDPNKDTSENADGQSDENKDDYTIPDEYRIGPYQPNVPVGIDYVIPKTGFYCKLCSLFYTNEEVAKNTHCSSLPHYQKLKKFLNKLAEERRQKKET
chain 2: not shown

The first experiment covers variants of B1. Nature of the experiment: co-immunoprecipitation (Aly IP) followed by western blot, quantified; NSC-34 stable cell lines; five replicates; WT vs 115: p = 0.9670; read off a plot. On the technique in general: Immunoblotting shows a protein as a band on a membrane.
For chain 1 F115C, the ratio to parent was approximately 1.2.

Variants of B1 are the subject of the next experiment. Nature of the experiment: co-immunoprecipitation (Aly IP) followed by western blot, quantified; NSC-34 stable cell lines; five replicates; WT vs 85: p = 0.6561; read off a plot.
On to chain 1 S85C, for which the ratio to parent was approximately 1.4.

In the next experiment the parent is B1. Nature of the experiment: co-immunoprecipitation (Aly IP) followed by western blot, quantified; NSC-34 stable cell lines; five replicates; WT vs 622 p = 0.9611; read off a plot.
Consider chain 1 T622A, for which the ratio to parent was approximately 1.2.

In another experiment the parent is B1. Nature of the experiment: co-immunoprecipitation (Aly IP) followed by western blot, quantified; NSC-34 stable cell lines; five replicates; WT vs 154 p = 0.2250; read off a plot.
Regarding chain 1 P154S, the ratio to parent is approximately 1.6.
